# Results as given in patent US20120252071A1 (ROCHE DIAGNOSTICS OPERATIONS, published 2012).
# Numbering of substitutions follows the chain as printed. Numbers in names are those of the source.
# B1: T7 variant #8 [Cys125Ser, Cys347Ser, Cys492Ser, Cys515Ser, Cys723Ser, Cys839Ser] including His6-tag (enzyme)
# chain: MNTINIAKNDFSDIELAAIPFNTLADHYGERLAREQLALEHESYEMGEARFRKMFERQLKAGEVADNAAAKPLITTLLPKMIARINDWFEEVKAKRGKRPTAFQFLQEIKPEAVAYITIKTTLASLTSADNTTVQAVASAIGRAIEDEARFGRIRDLEAKHFKKNVEEQLNKRVGHVYKKAFMQVVEADMLSKGLLGGEAWSSWHKEDSIHVGVRCIEMLIESTGMVSLHRQNAGVVGQDSETIELAPEYAEAIATRAGALAGISPMFQPCVVPPKPWTGITGGGYWANGRRPLALVRTHSKKALMRYEDVYMPEVYKAINIAQNTAWKINKKVLAVANVITKWKHSPVEDIPAIEREELPMKPEDIDMNPEALTAWKRAAAAVYRKDKARKSRRISLEFMLEQANKFANHKAIWFPYNMDWRGRVYAVSMFNPQGNDMTKGLLTLAKGKPIGKEGYYWLKIHGANCAGVDKVPFPERIKFIEENHENIMASAKSPLENTWWAEQDSPFCFLAFSFEYAGVQHHGLSYNCSLPLAFDGSCSGIQHFSAMLRDEVGGRAVNLLPSETVQDIYGIVAKKVNEILQADAINGTDNEVVTVTDENTGEISEKVKLGTKALAGQWLAYGVTRSVTKRSVMTLAYGSKEFGFRQQVLEDTIQPAIDSGKGLMFTQPNQAAGYMAKLIWESVSVTVVAAVEAMNWLKSAAKLLAAEVKDKKTGEILRKRSAVHWVTPDGFPVWQEYKKPIQTRLNLMFLGQFRLQPTINTNKDSEIDAHKQESGIAPNFVHSQDGSHLRKTVVWAHEKYGIESFALIHDSFGTIPADAANLFKAVRETMVDTYESSDVLADFYDQFADQLHESQLDKMPALPAKGNLNLRDILESDFAFA
# notes: also called six-fold mutant; sextuple T7 variant; not shown: N-terminal His6-tag with linker
# B2: T7 variant #35 [Cys723Ser, Val426Leu, Val650Leu, Ala702Val, Val795Ile] (enzyme)
# chain: B1 chain with S125C, S347C, V426L, S492C, S515C, V650L, A702V, V795I, S839C
# notes: not shown: N-terminal His-tag
# B3: T7 variant #30 [Cys723Ser, Val426Leu, Val795Ile] (enzyme)
# chain: B1 chain with S125C, S347C, V426L, S492C, S515C, V795I, S839C
# notes: not shown: N-terminal His-tag
# B4: T7 variant #33 [Cys125Ser, Cys347Ser, Cys492Ser, Cys515Ser, Cys723Ser, Cys839Ser, Val426Leu, Ala702Val, Val795Ile] (enzyme)
# chain: B1 chain with V426L, A702V, V795I
# notes: not shown: N-terminal His-tag
# B5: T7 variant #28 [Cys723Ser, Val426Leu, Ala702Val] (enzyme)
# chain: B1 chain with S125C, S347C, V426L, S492C, S515C, A702V, S839C
# notes: not shown: N-terminal His-tag
# B6: T7 variant #26 [Cys723Ser, Ala702Val, Val795Ile] (enzyme)
# chain: B1 chain with S125C, S347C, S492C, S515C, A702V, V795I, S839C
# notes: not shown: N-terminal His-tag
# B7: T7 variant #36 [C125S, C347S, C492S, C515S, C723S, C839S, V426L, V650L, A702V, V795I] (enzyme)
# chain: B1 chain with V426L, V650L, A702V, V795I
# notes: not shown: N-terminal His-tag
# B8: T7 variant #32 [Cys723Ser, Val426Leu, Ala702Val, Val795Ile] (enzyme)
# chain: B1 chain with S125C, S347C, V426L, S492C, S515C, A702V, V795I, S839C
# notes: not shown: N-terminal His-tag
# Target: the molecule itself
# Experiment: non-reducing SDS-PAGE after 16 h at 37 C without reducing agent (self-association by disulfide bonds)
# Protocol: Samples of T7 variants were prepared according to a procedure described in Example 4. T7 RNA polymerase and variants thereof were analyzed by gel electrophoresis on polyacrylamide gels containing sodium dodecylsulphate (SDS). Gradient gels (NuPAGE, 4-12%, Bis-Tris Gel, Invitrogen) were used. Typically, protein samples (0.26 mg/ml, 18 μl) were mixed with 6 μl of NuPAGE LDS (Lithium dodecyl sulfate; LDS may also be substituted by sodium dodecyl sulfate) sample buffer, (4×, Invitrogen). After heating for 2 min at 85° C., samples (20 μl) were applied on the gel. The total amount of protein in a single lane of the gel was between 1 μg and 3 μg. Gels were run in SDS Running Buffer (1×MES, Invitrogen) at 200 V for 1 hour.
# Further, samples of wild-type T7 and T7 variants (0.2 to 0.3 mg/ml each) were incubated at 37° C. for 16 hours in 25 mM Tris/HCl, pH 7.5 (adjusted at 25° C.), 0.1 mM EDTA, 100 mM NaCl. Aliquots were removed and applied on the SDS gels under reducing conditions or under non-reducing conditions. After incubation a sample of each treated preparation was subjected to SDS polyacrylamide gel electrophoresis as described in Example 5. Results are depicted in FIG. 2 (reducing reagents absent) and FIG. 3 (10 mM DTT added).
# With reference to FIG. 2 (reducing reagents absent), and in reference to Examples 5, 6, and 7, a stained SDS polyacrylamide gel is shown. […]
row,Protein,binding result
1,B1,no binding (tested: 2.9 µg of protein per lane)

# Target: the molecule itself
# Experiment: non-reducing SDS-PAGE (self-association by disulfide bonds)
row,Protein,binding result
1,B2,no binding
2,B3,no binding
3,B4,no binding
4,B5,no binding
5,B6,no binding
6,B7,no binding
7,B8,no binding
